# Test results as given in the RNAGym collection of RNA variant scans (doi:10.1073/pnas.2313332121).
# This sample holds only a part of the variants without activity.
# B1: TPR 5TU (parent)
# chain: GGAUCUUCUCGAUCUAACAAAAAAGACAAAUCUGCCACAAAGCUUGAGAGCAUCUUCGGAUGCAGAGGCGGCAGCCUUCGGUGGCGCGAUAGCGCCAACGUUCUCAACUAUGACACGCAAAACGCGUGCUCCGUUGAAUGGAGUUUAUCAUG
# Variants of: B1
# Assay: polymerase ribozyme fitness, log enrichment relative to wild type (log ratio); higher = more active; in vitro selection for triplet polymerase activity
# Method in brief: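 To select mutant libraries of each subunit of a heterodimeric triplet polymerase ribozyme, built by PCR and transcribed, each was annealed with a biotinylated primer, partner subunit and triplets, then incubated frozen at −7 °C. Extended constructs were gel-excised, captured on streptavidin beads and amplified by RT-PCR, in one round carried out in triplicate. Illumina sequencing of input and output libraries kept genotypes with ≥10 input reads and ≥1 read per output. Fitness is the base-2 logarithm of genotype enrichment relative to wild-type enrichment, from inverse-variance-weighted replicate averages.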
row,Variant,polymerase ribozyme fitness (log ratio)
1,G50A C57U C85U G128A,≤ -4.2
2,G59C U61G C96G C105U A115U A150U,≤ -4.2
3,C38U U55G A119G,-0.675
4,C54G A60G G81A C93G C118U,≤ -4.2
5,A49C G74C C87A C125U,≤ -4.2
6,A49G G81C A91G A98U,-2.95
7,A52G C63U C93U U145G C149U,-4.11
8,C36A C57G U77C A119G,≤ -4.2
9,C87U C96G A113U,-2.85
10,A26G A39G C85U,≤ -4.2
11,G92A U104G A110G,-3.8
12,G42C A60U G67C G128U A138U,≤ -4.2
13,C35G C76A,-4.13
14,A60C G80A,-2.27
15,C8U G83U A97G A142U,-4.17
16,C54U U146A,-0.881
17,C75G G81U G84C A137U U146C,≤ -4.2
18,A22G G58C A119U A122U,0.574
19,C51G A91G,≤ -4.2
20,A22U C51U A137G A147C,-2.48
21,C27U A47C,-1.01

row,Variant,polymerase ribozyme fitness (log ratio)
1,C96G G152U,-2.77
2,C14G U15C G84U,-1.26
3,C57G C85U G117U C118G,-1.51
4,A22U U144A,0.777
5,A39C A60G C87U A147C,-3.78
6,C85U C96U A98G A150G,-2.21
7,A37C C93U,-1.64
8,A60C U82G G84A,-1.71
9,A23G G46C G50A G92A C118U A142U,≤ -4.2
10,A20U U56A C76U G133A,≤ -4.2
11,G50A C95G,-3.01
12,U56A G71U U78G C85U G143U,≤ -4.2
13,C54A G58A G94A A98U,-0.552
14,G50C U101G,-2.64
15,A12G C54A G86C C87U G126A,≤ -4.2
16,A16U C85G,-3.36
17,A16U G58U,-2.34
18,U4G A19G A23G G59U A66U G141C,≤ -4.2
19,U15G A98G A122C G124U,-1.76
20,A12U G50U C72U G126A,-1.33
21,U45C U56A A91G U111A,≤ -4.2

row,Variant,polymerase ribozyme fitness (log ratio)
1,U7A A26G U31C G50U A73C G86A U104G,≤ -4.2
2,A23U C38U G59C C95A U151G,≤ -4.2
3,C14U A21G A49G,-2.56
4,C38G C54U C57U G141C,-2.86
5,A20C G83C C118G U130G,≤ -4.2
6,A29C G62U G80C C118A,≤ -4.2
7,A47U C57A,0.807
8,C54A A106C,-2.06
9,A37C A97U,-0.373
10,A3U C35U C54A C85G,≤ -4.2
11,C14U C27U U90C A91U C116G,-3.77
12,U45G A47U A49C U61A C76A C87A U146G,≤ -4.2
13,A52G C93U G94C A97C,-3.73
14,U53A C57G,-2.09
15,U45G C93A A113U C116U,≤ -4.2
16,A20U C38G C57U G86A,-3.63
17,C75U A122U,-0.205
18,U55G C72U G136C,-3.74
19,G59C G81A,-2.07
20,A40U A41U A49U G59A C87G U146G,≤ -4.2
21,C85A C99G,-3.49

row,Variant,polymerase ribozyme fitness (log ratio)
1,A22U U45A G68A A122G G140U U146A,≤ -4.2
2,G25U C76U,-2.44
3,A21G C96U,0.682
4,G124A G140C,-3.89
5,A47G G74A U101G A121C U145C,≤ -4.2
6,G50U G94A A113G A147C,-3.89
7,C35A U90A C95U U102A,≤ -4.2
8,A37U A73G,-1.1
9,A22C C27U A52C,-2.64
10,U6G G58C C131A,-2.15
11,A3G U31G G50A C95G C118G A138C U146A G152U,≤ -4.2
12,A21C A37C G84A,0.0671
13,U55G G86A U139G,-1.96
14,G48A C57A U127A A142G G143A,≤ -4.2
15,C5A A110C,≤ -4.2
16,U4A A37U G94C A150G,-4.19
17,A91C A142C,≤ -4.2
18,G81A C85A,0.102
19,G25C A52G G83C,-3.42
20,A19C C27A A47C G58A G59A A91G C123A,≤ -4.2
